Data taken from the DeepSol protein solubility set.

Assay: soluble on expression in E. coli; label from the status in PepcDB or PDB records

## MSASAETVAPEGYRKLLDVQIFKDSPVVGWSGSGMGELETIGDTLPVDTTVTYNGLPTLRLNVQTTVQSGWWISLLTLRGWNTHDLSQYVENGYLEFDIKGKEGGEDFVIGFRDKVYERVYGLEIDVTTVISNYVTVTTDWQHVKIPLRDLMKINNGFDPSSVTCLVFSKRYADPFTVWFSDIKITSEDNEKSAPAIKLEHHHHHH
  soluble on expression in E. coli: soluble

## MTILPVKKKREKDSQQRSVSTIGSSAENSRQQLSGPSCSSSASSSSSAAKRIRSQEDGPPSKRWVLSASSTSSTNKSPIPSSSPVLPPPQPEIEPNRSQSPGNADYNSDDEYEMQNIRDDEIETEFSNRLAARGLIIKEMVGDGACMFRSIAEQIYGDQEMHGQIRRLCMDYMSNNRDHFKEFITENFENYIQRKREENVHGNHVELQAISEIKKKSNYILKNSLHSINSEPINVLLPRPEPEATALTDGSASTSNAAPPPSTVPIQQNPPLRLSYHRAVHYNAILAPNIPTIGIGLGLPGMIPGSADKELMSTAMKTSELEHIEETMLQDKIDMTDFQRTQADIEDQITRESLISYLNDFEKSKNAPSTSAGAPGPSNFSGEPPVSGSGLYEEMLAAQSLEWDAYTDDVAIAEAMLVSQQDYMSNKPSTSSSGSGPSTSE
  soluble on expression in E. coli: not soluble

## MGSDKIHHHHHHMLQFQPPGFGHKLIHTSLGAMVYYTQTNTPWAFADTEDLPPLLFLHNFGGGASAYEWSKVYPAFASNYHILAPDLIGWGESAHPVRDYKIRDYLSTIAEFIIETCRQPVTVVASSLTAAFAIRLAIVQPNLFKALFLVSPSGFDDFGQGAGRRLPLSVINTPLLDNFIYMLGAENEIAVRNFLQSFLFAKSERVSQEIVDAYLTSAQQPNAKFSALAFLRGDLYFDLSLYIQQLTIPTVMFWGEKAQFTNIKLGQRLANLNQRAIQDFYAIADAGILPHLEIPEVVIGLLQRYLR
  soluble on expression in E. coli: not soluble

## MGSDKIHHHHHHITPSISSKADNLIPRTNLEISNGQVFNESQIRLRGWGLNASGIKAIDIYVDGTWKKTLVKGDGFGLSRPDVKQAFPEYPDADYSGYDYYMYLPDGNHTLRVWAIGNDNSKVYSEANITVDTSNSKGTQLVNYARKFIGVPYVWGGDTPNGFDCSGLVMYCYAHFGVNLPHYTGDQVKYGTVVTDLQPGDLLFFGSTSDPYHVAIYSGNGYMIEAPKTGENVHETPVRSYSIAKRIF
  soluble on expression in E. coli: not soluble

## MAHHHHHHMVNFILNEAKDKAHEIEAKALEDFNIEKLRIVQKMKEKIRVEFQKKAKQMEIKRSIARSSAINKARLKKMCAKDQVFKEIYKISSDKLNDLYKDKDKYKNLIVDLIVQSLFYMQEPHVIVRCRDIDKAVVESSLNEAVSKYTDKLKKQFNVTKTVKIELDKSGNYLPPPPTPENEGNSCLGGVILTTPNRKINCDNTLDVRLKLAIEYCTPEIKRMFFENA
  soluble on expression in E. coli: not soluble

## MGSDKIHHHHHHMSGKIAFVTGATGLLGSNLCRALVSQGWQVKGLVRSLDKAKRFLGDSNIELIQGDIEDVPAFTQALKGVDVVFHTAAFFREYYQPGSDWQKMKRINVDTTIELLQAAEAQGVAKVVFTSSSGVIQTDPHQAATETAPYNKFAEQNLYFKTKILAEQEIYRFLNTSQIDVVMILPGWMMGPGDAAPTSAGQLVLDLLAGKLPGVINGGAALTDVRDVATVMVKAAEKGESGGRYIVAGPLTTMKEIALELEAISGVKAPRMEIPDGMAIAIAWFLEKFTGLTGGVNPMPLAGIQTLLEKAKLSSAKAERDLGATFRPLRETLKDTVLWYQSQGYV
  soluble on expression in E. coli: not soluble

## MAMGQLQHGIDDENATKQTQKYRDAEQSKKTAYDQAVAAAKAILNKQTGSNSDKAAVDRALQQVTSTKDALNGDAKLAEAKAAARQNLGTLNHITNAQRTALEGQINQATTVDGVNTVKTNANTLDGAMNSLQGAINDKDATLRNQNYLDADESKRNAYTQAVTAAEGILNKQTGGNTSKADVDNALNAVTRAKAALNGAENLRNAKTSATNTINGLPNLTQLQKDNLKHQVEQAQNVVGVNGVKDKGNLEHHHHHH
  soluble on expression in E. coli: soluble

## MGSDKIHHHHHHMLTTVKEKIEALNSEVSYRVKLWQYAPNLPKVESRDRLIVDTLKSEGVYITTLQELGLPSTAQLLKASHTLLPGMGQGSYAESAQNPPEIYTVTHIPDFYNWGSESRLLNILENYIGLPVAYHGVQIRKDFVNANQFSTMLWHRDSEDRRIVKIIIYLSDVEEKHGPFEYVPASFTSIDSLNFYRLYYKIHKSGINDEALNKIVPKSAWKSCTGPAGSVIIADTQRLLHHGTVRTEERSTLFYAYTANPAKRPGLCTQYWDDTFPKPNYS
  soluble on expression in E. coli: not soluble
